We go through one molecule from patent US20220242945A1 (SORRISO PHARMACEUTICALS, published 2022).

The target in experiment [1] is T1, recombinant human IL-23 (human, UniProt Q9NPF7 20-189; P29460 23-328).
T1 construct: Heterodimer of p19 and p40; also called hIL-23; interleukin-23; not shown: single C-terminal 6xHis tag
T1 sequence 1: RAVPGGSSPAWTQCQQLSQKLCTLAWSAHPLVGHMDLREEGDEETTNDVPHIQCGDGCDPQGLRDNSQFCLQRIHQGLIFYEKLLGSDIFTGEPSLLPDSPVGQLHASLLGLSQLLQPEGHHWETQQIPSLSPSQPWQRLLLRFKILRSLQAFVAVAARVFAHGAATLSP
T1 sequence 2: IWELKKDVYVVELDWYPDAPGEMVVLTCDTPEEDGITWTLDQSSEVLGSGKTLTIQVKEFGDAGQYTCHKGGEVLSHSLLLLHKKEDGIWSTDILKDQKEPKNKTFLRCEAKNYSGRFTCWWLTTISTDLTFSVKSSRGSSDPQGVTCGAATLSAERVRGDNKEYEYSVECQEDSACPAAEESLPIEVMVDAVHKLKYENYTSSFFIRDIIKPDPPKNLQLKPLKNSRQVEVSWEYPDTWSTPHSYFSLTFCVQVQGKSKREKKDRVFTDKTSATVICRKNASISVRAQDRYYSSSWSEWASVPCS
The experiment can be described thus: IL-23-IL-23R inhibition ELISA (Evaluation Method A), side by side with brazikumab. Here is the method: (§1) Maxisorp 96-well plates were coated overnight with 50 μl/well 0.3 μg/ml IL-23R-Fc then blocked with 4% milk, 1% BSA.

Another experiment deals with T2, THP-1 derived nhIL-23 (human, UniProt Q9NPF7 20-189; P29460 23-328).
T2 sequence (looked up) 1: T1 sequence 1
T2 sequence (looked up) 2: T1 sequence 2
Nature of the experiment: cell-based or functional assay.

Experiment [2] addresses T1, recombinant human IL-23. The experiment can be described thus: IL-23-IL-23R neutralisation ELISA. Here is the method: as §1
The Family L ICVD 12G1 underwent sequence modification to produce multiple variant ICVDs. These variant ICVDs were tested in the potency and protease stability assays detailed above.
For orientation: An ELISA detects its analyte on a solid surface through an enzyme-linked reagent.

The target in the next experiment is IL-6 (Homo sapiens (Human), UniProt P05231 30-212). The experiment can be described thus: binding or inhibition ELISA (which of the two is not said).
The target of the next experiment is T3, rhesus monkey IL-12 (rhesus monkey, UniProt P48091 23-219; P48095 23-328).
T3 sequence (looked up) 1: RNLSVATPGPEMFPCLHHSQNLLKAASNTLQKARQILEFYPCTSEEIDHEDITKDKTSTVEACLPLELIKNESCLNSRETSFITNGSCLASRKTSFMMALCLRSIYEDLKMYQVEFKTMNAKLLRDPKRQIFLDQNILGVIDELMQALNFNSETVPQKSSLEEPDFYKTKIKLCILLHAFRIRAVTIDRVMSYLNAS
T3 sequence (looked up) 2: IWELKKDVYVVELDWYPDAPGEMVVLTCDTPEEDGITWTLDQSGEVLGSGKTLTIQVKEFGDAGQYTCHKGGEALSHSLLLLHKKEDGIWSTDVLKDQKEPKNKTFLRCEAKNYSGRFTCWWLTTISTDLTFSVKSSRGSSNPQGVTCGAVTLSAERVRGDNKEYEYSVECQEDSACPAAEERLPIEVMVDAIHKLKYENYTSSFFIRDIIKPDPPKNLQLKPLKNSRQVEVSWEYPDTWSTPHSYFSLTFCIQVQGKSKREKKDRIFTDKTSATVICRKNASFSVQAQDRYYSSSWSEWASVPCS
Described as above.

The next experiment concerns the target T4, Human IL-12 (human, UniProt P29459 23-219; P29460 23-328).
T4 sequence (looked up) 1: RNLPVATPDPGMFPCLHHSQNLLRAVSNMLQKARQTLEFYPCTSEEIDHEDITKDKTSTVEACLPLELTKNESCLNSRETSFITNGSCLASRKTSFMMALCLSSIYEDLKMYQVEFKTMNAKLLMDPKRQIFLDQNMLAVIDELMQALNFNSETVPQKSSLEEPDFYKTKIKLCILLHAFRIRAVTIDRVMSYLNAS
T4 sequence (looked up) 2: T1 sequence 2
Described as above.

Experiment [3] deals with T1, recombinant human IL-23. Nature of the experiment: SPR (Biacore), recombinant human IL-23 captured by an anti-p40 mAb on the chip, ICVD flowed over; average KD. In general terms: SPR reads the build-up and loss of mass on a sensor chip optically.

By EC50 is commonly meant the concentration giving half of the maximal effect. For orientation: Kd means the equilibrium constant for the complex coming apart.

IL-6, sequence (P05231 30-212 limits assumed): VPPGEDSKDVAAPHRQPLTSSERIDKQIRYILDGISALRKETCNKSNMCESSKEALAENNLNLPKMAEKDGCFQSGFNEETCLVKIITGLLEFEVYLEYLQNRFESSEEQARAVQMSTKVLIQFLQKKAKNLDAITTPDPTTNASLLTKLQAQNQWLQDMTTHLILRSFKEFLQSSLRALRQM

B1: ID-L253T (VHH)
VHH: DVQLVESGGGQVQPGGSLSLSCESSVSIWSFKVMGWFRQVPGKQRELVATITTGGSPDYSDSVKGRFTISRDYDKRTLYLQMNSLKPEDTAVYYCAGRLWAHITSSGHDVWGQGTQVTVSS
notes: Optimised variant of 12G1
As for B1, the EC50 in the experiment with recombinant human IL-23 [1] was determined as 202 pM; in the experiment with recombinant human IL-23 [2], 230 pM. Further, the “Mouse splenocyte (EC50; mIL-17 secretion, Evaluation Method C)” value with THP-1 derived nhIL-23 worked out at 13500 pM. The binding result with IL-6, with rhesus monkey IL-12 and with Human IL-12 was “no binding” throughout. The dissociation constant Kd in the experiment with recombinant human IL-23 [3] came to 32 pM.
